Target: cyno EpCAM (cyno)
Assay: assay not stated; drawn table, heading 'Binding Affinity (nM)', column 'Cyno'

Chain of cyno EpCAM (cyno) (Q1WER1 24-265): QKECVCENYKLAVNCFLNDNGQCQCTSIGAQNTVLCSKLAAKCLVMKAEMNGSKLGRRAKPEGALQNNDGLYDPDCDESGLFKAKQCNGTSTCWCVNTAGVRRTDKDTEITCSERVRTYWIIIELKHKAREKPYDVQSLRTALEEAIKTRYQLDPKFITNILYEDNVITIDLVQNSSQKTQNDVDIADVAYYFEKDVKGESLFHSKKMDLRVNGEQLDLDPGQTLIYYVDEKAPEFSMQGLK

- Kd: 51.8 nM
B1: hVIB-23 (VHH)
VHH: QVQLVESGGGLVQPGGSLTLSCVISGSFSALWAMRWYRQAPGQQRELVASSRGGTTSYADSVKGRFTISRDNSKNTLYLQMNSLRPEDTAVYYCNAIDGHLAYWGQGTLVTVSS

From patent US20240199739A1 (Takeda / Millennium, published 2024)
